Tests used:
[1] = molecular target: T1, VLP2 (virus-like particles of AAV2) (AAV2, UniProt P03135 1-735; P03135 1-598; P03135 1-533); test: ELISA on VLP2; binding after 43°C 15 min / untreated
T1 construct: Empty AAV2 capsid; background says about 60 protein molecules, VP1:VP2:VP3 = 1:1:10; Immobilised on the ELISA plate

[2] = molecular target: T1, VLP2 (virus-like particles of AAV2); test: ELISA on VLP2; A450 after pH 2.5 30°C 2 h / untreated
[3] = molecular target: T1, VLP2 (virus-like particles of AAV2); test: ELISA on VLP2; A450 after 66.1°C 15 min / untreated
[4] = molecular target: T1, VLP2 (virus-like particles of AAV2); test: ELISA on VLP2; A450 after pH 2.5 30°C 24 h / untreated
[5] = molecular target: T1, VLP2 (virus-like particles of AAV2); test: ELISA on VLP2; A450 after 50.3°C 15 min / untreated
[6] = molecular target: T1, VLP2 (virus-like particles of AAV2); test: ELISA on VLP2; binding after pH 3.0 51.1°C 15 min / untreated;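 also: binding of the heat-treated AAV-binding protein to VLP2, expressed as a percentage of the binding of the same protein without heating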
Procedure: (§1) The residual activity was calculated by dividing the binding activity of AAV-binding protein to VLP2 when the heat treatment was performed by the binding activity of AAV-binding protein to VLP2 when the heat treatment was not performed.

[7] = molecular target: T1, VLP2 (virus-like particles of AAV2); test: ELISA on VLP2; A450 after pH 3.0 60.1°C 15 min / 25°C
Procedure: (§2) (3) Each diluted mutated AAV-binding protein solution was divided into four portions, and each portion was mixed with an equal amount of 0.1 M glycine-HCl buffer (pH 3.0).
(§3) (4) The residual activity was calculated by dividing the absorbance at 450 nm when the heat treatment and acid treatment described in (3) were performed by the absorbance at 450 nm when standing still was performed at room temperature.

[8] = molecular target: T1, VLP2 (virus-like particles of AAV2); test: ELISA on VLP2; A450 after pH 3.0 66.1°C 15 min / 25°C
Procedure: as §2, §3

[9] = molecular target: T1, VLP2 (virus-like particles of AAV2); test: ELISA on VLP2; A450 after pH 3.0 51.5°C 15 min / 25°C
Procedure: as §2, §3

[10] = molecular target: T1, VLP2 (virus-like particles of AAV2); test: ELISA on VLP2; binding after pH 3.0 61.0°C 15 min / untreated
Procedure: (3) The culture solution of (2) was centrifuged, and the obtained culture supernatant was diluted 32-fold with ultrapure water. The diluted culture solution in an amount of 60 μL and 60 μL of 0.1 M glycine hydrochloric acid buffer (pH 3.0) were mixed, and heat treatment and acid treatment were performed at 61.0° C. for 15 minutes.
as §1

T1 sequence (P03135 whole entry, chain 1 of 3): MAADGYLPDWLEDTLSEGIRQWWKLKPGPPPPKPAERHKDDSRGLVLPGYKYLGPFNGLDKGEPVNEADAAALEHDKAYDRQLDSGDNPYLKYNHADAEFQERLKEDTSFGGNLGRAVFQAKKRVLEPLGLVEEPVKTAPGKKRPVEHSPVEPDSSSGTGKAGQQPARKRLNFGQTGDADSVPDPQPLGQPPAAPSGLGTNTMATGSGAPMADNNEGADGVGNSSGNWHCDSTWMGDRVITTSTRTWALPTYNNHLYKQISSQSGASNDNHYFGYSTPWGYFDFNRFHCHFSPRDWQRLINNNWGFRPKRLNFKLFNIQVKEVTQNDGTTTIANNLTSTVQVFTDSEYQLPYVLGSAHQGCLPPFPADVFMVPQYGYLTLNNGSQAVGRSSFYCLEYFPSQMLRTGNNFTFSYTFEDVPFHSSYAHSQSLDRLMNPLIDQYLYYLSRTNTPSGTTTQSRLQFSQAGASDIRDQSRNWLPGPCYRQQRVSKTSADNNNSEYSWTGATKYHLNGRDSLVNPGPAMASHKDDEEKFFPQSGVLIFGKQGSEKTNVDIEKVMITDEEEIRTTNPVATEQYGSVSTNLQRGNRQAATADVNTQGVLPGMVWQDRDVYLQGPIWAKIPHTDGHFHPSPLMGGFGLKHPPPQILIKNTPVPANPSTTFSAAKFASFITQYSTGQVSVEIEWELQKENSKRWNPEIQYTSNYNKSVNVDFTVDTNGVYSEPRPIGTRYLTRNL
T1 sequence (P03135 139-735, tags left off, chain 2 of 3): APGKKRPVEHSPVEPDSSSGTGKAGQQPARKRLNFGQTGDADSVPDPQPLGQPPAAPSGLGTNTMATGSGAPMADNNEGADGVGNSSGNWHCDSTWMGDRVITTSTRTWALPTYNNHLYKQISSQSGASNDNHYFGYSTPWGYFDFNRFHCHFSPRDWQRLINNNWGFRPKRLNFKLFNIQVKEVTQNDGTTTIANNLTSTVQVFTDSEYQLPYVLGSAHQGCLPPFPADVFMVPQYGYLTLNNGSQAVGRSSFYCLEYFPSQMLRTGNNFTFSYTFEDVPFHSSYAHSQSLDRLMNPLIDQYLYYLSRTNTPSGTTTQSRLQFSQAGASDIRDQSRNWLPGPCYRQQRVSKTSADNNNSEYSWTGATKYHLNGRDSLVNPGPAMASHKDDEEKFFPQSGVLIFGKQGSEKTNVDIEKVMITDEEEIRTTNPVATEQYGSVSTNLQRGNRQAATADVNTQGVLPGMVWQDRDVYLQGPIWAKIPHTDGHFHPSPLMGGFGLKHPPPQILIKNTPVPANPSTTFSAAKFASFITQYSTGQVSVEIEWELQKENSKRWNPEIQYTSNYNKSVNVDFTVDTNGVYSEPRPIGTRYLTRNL
T1 sequence (P03135 203-735, chain 3 of 3): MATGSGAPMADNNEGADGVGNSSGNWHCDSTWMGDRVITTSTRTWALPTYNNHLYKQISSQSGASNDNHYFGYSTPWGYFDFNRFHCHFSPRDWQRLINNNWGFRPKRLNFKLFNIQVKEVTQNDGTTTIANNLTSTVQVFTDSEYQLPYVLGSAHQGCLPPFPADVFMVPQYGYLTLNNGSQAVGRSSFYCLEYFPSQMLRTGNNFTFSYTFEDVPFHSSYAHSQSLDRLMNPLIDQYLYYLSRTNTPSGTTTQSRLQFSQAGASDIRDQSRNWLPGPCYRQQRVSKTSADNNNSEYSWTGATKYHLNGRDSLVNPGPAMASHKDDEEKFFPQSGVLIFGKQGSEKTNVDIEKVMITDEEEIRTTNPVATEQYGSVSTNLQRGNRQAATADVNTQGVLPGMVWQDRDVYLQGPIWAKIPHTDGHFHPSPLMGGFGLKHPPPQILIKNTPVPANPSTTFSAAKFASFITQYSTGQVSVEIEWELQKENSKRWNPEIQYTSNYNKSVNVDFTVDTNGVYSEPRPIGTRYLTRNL

Binder	Residual activity [%] [1] [%]	Residual activity [%] [2] [%]	Residual activity [%] [3] [%]	Residual activity [%] [4] [%]	Residual activity [%] [5] [%]	Residual activity [%] [6] [%]	Residual activity after heat treatment [%] [7] [%]	Residual activity after heat treatment [%] [8] [%]	Residual activity after heat treatment [%] [9] [%]	Residual activity [%] [10] [%]
AAV-binding protein No. 9 (Pro352Leu) (receptor) MGSAGESVQITLPKNEVQLNAYVLQEPPKGETYTYDWQLITHLRDYSGEMEGKHSQILKLSKLTPGLYEFKVIVEGQNAHGEGYVNVTVKPEPRKNRPPIAIVSPQFQEISLPTTSTVIDGSQSTDDDKIVQYHWEELKGPLREEKISEDTAILKLSKLVPGNYTFSLTVVDSDGATNSTTANLTVNKAVDHHHHHH	71.9	17.6	46.5	5.6	49					
AAV-binding protein No. 16 (Leu369Gln) (receptor) MGSAGESVQITLPKNEVQLNAYVLQEPPKGETYTYDWQLITHPRDYSGEMEGKHSQILKQSKLTPGLYEFKVIVEGQNAHGEGYVNVTVKPEPRKNRPPIAIVSPQFQEISLPTTSTVIDGSQSTDDDKIVQYHWEELKGPLREEKISEDTAILKLSKLVPGNYTFSLTVVDSDGATNSTTANLTVNKAVDHHHHHH	92.8	17.3	20.3	10	32					
AAV-binding protein No. 29 (Leu333Val, Tyr342Cys) (receptor) MGSAGESVQITLPKNEVQLNAYVVQEPPKGETCTYDWQLITHPRDYSGEMEGKHSQILKLSKLTPGLYEFKVIVEGQNAHGEGYVNVTVKPEPRKNRPPIAIVSPQFQEISLPTTSTVIDGSQSTDDDKIVQYHWEELKGPLREEKISEDTAILKLSKLVPGNYTFSLTVVDSDGATNSTTANLTVNKAVDHHHHHH	91.8	52.2	54.5	40.2	66.7					
AAV-binding protein No. 30 (Glu340Gly, Tyr342Cys) (receptor) MGSAGESVQITLPKNEVQLNAYVLQEPPKGGTCTYDWQLITHPRDYSGEMEGKHSQILKLSKLTPGLYEFKVIVEGQNAHGEGYVNVTVKPEPRKNRPPIAIVSPQFQEISLPTTSTVIDGSQSTDDDKIVQYHWEELKGPLREEKISEDTAILKLSKLVPGNYTFSLTVVDSDGATNSTTANLTVNKAVDHHHHHH	91.3	70.5	52.4	56.1	65.4					
AAV-binding protein No. 36 (Tyr355His, Asn387Ser) (receptor) MGSAGESVQITLPKNEVQLNAYVLQEPPKGETYTYDWQLITHPRDHSGEMEGKHSQILKLSKLTPGLYEFKVIVEGQSAHGEGYVNVTVKPEPRKNRPPIAIVSPQFQEISLPTTSTVIDGSQSTDDDKIVQYHWEELKGPLREEKISEDTAILKLSKLVPGNYTFSLTVVDSDGATNSTTANLTVNKAVDHHHHHH	86.6	16.1	51	8.9	74.5					
AAV-binding protein No. 43 (Leu321Pro, Tyr342Asn, Ala461Ser) (receptor) MGSAGESVQITPPKNEVQLNAYVLQEPPKGETNTYDWQLITHPRDYSGEMEGKHSQILKLSKLTPGLYEFKVIVEGQNAHGEGYVNVTVKPEPRKNRPPIAIVSPQFQEISLPTTSTVIDGSQSTDDDKIVQYHWEELKGPLREEKISEDTSILKLSKLVPGNYTFSLTVVDSDGATNSTTANLTVNKAVDHHHHHH	84.1	41.4	56.3	28.3	55.6					
AAV-binding protein No. 45 (Asn329Asp, Tyr342His, Tyr355Cys) (receptor) MGSAGESVQITLPKNEVQLDAYVLQEPPKGETHTYDWQLITHPRDCSGEMEGKHSQILKLSKLTPGLYEFKVIVEGQNAHGEGYVNVTVKPEPRKNRPPIAIVSPQFQEISLPTTSTVIDGSQSTDDDKIVQYHWEELKGPLREEKISEDTAILKLSKLVPGNYTFSLTVVDSDGATNSTTANLTVNKAVDHHHHHH	97.2	64.4	46.7	47.6	66					
AAV-binding protein No. 47 (Asn329Tyr, Tyr377Cys, Arg406Ser) (receptor) MGSAGESVQITLPKNEVQLYAYVLQEPPKGETYTYDWQLITHPRDYSGEMEGKHSQILKLSKLTPGLCEFKVIVEGQNAHGEGYVNVTVKPEPRKNSPPIAIVSPQFQEISLPTTSTVIDGSQSTDDDKIVQYHWEELKGPLREEKISEDTAILKLSKLVPGNYTFSLTVVDSDGATNSTTANLTVNKAVDHHHHHH	92.7	43.6	58.7	34.8	64.5					
AAV-binding protein No. 49 (Tyr331Cys, Thr343Met, Tyr355Cys) (receptor) MGSAGESVQITLPKNEVQLNACVLQEPPKGETYMYDWQLITHPRDCSGEMEGKHSQILKLSKLTPGLYEFKVIVEGQNAHGEGYVNVTVKPEPRKNRPPIAIVSPQFQEISLPTTSTVIDGSQSTDDDKIVQYHWEELKGPLREEKISEDTAILKLSKLVPGNYTFSLTVVDSDGATNSTTANLTVNKAVDHHHHHH	97.7	52.8	57.3	16.6	77.3					
AAV-binding protein No. 53 (Asp354Gly, Leu369Gln, Lys455Arg) (receptor) MGSAGESVQITLPKNEVQLNAYVLQEPPKGETYTYDWQLITHPRGYSGEMEGKHSQILKQSKLTPGLYEFKVIVEGQNAHGEGYVNVTVKPEPRKNRPPIAIVSPQFQEISLPTTSTVIDGSQSTDDDKIVQYHWEELKGPLREERISEDTAILKLSKLVPGNYTFSLTVVDSDGATNSTTANLTVNKAVDHHHHHH	90.5	18.2	23.5	13.2	29.8					
AVR2 (AAV-binding protein No. 32, Tyr342Cys-Gly390Ser substitution product) (receptor) MGSAGESVQITLPKNEVQLNAYVLQEPPKGETCTYDWQLITHPRDYSGEMEGKHSQILKLSKLTPGLYEFKVIVEGQNAHSEGYVNVTVKPEPRKNRPPIAIVSPQFQEISLPTTSTVIDGSQSTDDDKIVQYHWEELKGPLREEKISEDTAILKLSKLVPGNYTFSLTVVDSDGATNSTTANLTVNKAVDHHHHHH	97.6	70.7	70.5	64.7	76	25.5				
AVR4a (Ile319Phe, Tyr342Cys, Gly390Ser, Ser476Arg) (receptor) MGSAGESVQFTLPKNEVQLNAYVLQEPPKGETCTYDWQLITHPRDYSGEMEGKHSQILKLSKLTPGLYEFKVIVEGQNAHSEGYVNVTVKPEPRKNRPPIAIVSPQFQEISLPTTSTVIDGSQSTDDDKIVQYHWEELKGPLREEKISEDTAILKLSKLVPGNYTFRLTVVDSDGATNSTTANLTVNKAVDHHHHHH							16	8	57	
AVR4d (Tyr342Cys, Gly390Ser, Ser476Arg, Asn487Asp) (receptor) MGSAGESVQITLPKNEVQLNAYVLQEPPKGETCTYDWQLITHPRDYSGEMEGKHSQILKLSKLTPGLYEFKVIVEGQNAHSEGYVNVTVKPEPRKNRPPIAIVSPQFQEISLPTTSTVIDGSQSTDDDKIVQYHWEELKGPLREEKISEDTAILKLSKLVPGNYTFRLTVVDSDGATDSTTANLTVNKAVDHHHHHH							35	18	66	
AVR5b (Ile319Phe, Lys323Glu, Tyr342Cys, Gly390Ser, Ser476Arg) (receptor) MGSAGESVQFTLPENEVQLNAYVLQEPPKGETCTYDWQLITHPRDYSGEMEGKHSQILKLSKLTPGLYEFKVIVEGQNAHSEGYVNVTVKPEPRKNRPPIAIVSPQFQEISLPTTSTVIDGSQSTDDDKIVQYHWEELKGPLREEKISEDTAILKLSKLVPGNYTFRLTVVDSDGATNSTTANLTVNKAVDHHHHHH							43	23	87	
AVR7b (AAV-binding protein No. 91; AVR5e + Val317Asp, Lys371Asn) (receptor) MGSAGESDQITLPKNEVQLNAYVLQEPPKGETCTYDWQLITHPRDYSGEMEGKHSQILKLSNLTPGLYEFKVIVEGQNAHSEGYVNVTVEPEPRKNRPPIAIVSPQFQEISLPTTSTVIDGSQSTDDDKIVQYHWEELKGPLREEKISEDTAILKLSKLVPGNYTFRLTVVDSDGATDSTTANLTVNKAVDHHHHHH										55.7

— patent publication US20220402995A1 (TOSOH, published 2022)
